In the DeepSol protein solubility set:

Test: soluble on expression in E. coli; label from the status in PepcDB or PDB records

Row | Sequence | soluble on expression in E. coli
1 | ARDPKHDILFEPIQIGPKTLRNRFYQVPHAIGAGSDKPGFQSAHRSVKAEGGWAALNTEYCSINPESDDTHRLSARIWDEGDVRNLKAMTDEVHKYGALAGVELWYGGAHAPNMESRATPRGPSQYASEFETLSYCKEMDLSDIAQVQQFYVDAAKRSRDAGFDIVYVYGAHSYLPLQFLNPYYNKRTDKYGGSLENRARFWLETLEKVKHAVGSDCAIATRFGVDTVYGPGQIEAEVDGQKFVEMADSLVDMWDITIGDIAEWGEDAGPSRFYQQGHTIPWVKLVKQVSKKPVLGVGRYTDPEKMIEIVTKGYADIIGCARPSIADPFLPQKVEQGRYDDIRVCIGCNVCISRWEIGGPPMICTQNATAGEEYRRGWHPEKFRQTKNKDSVLIVGAGPSGSEAARVLMESGYTVHLTDTAEKIGGHLNQVAALPGLGEWSYHRDYRETQITKLLKKNKESQLALGQKPMTADDVLQYGADKVIIATGARWNTDGTNCLTHDPIPGADASLPDQLTPEQVMDGKKKIGKRVVILNADTYFMAPSLAEKLATAGHEVTIVSGVHLANYMHFTLEYPNMMRRLHELHVEELGDHFCSRIEPGRMEIYNIWGDGSKRTYRGPGVSPRDANTSHRWIEFDSLVLVTGRHSECTLWNELKARESEWAENDIKGIYLIGDAEAPRLIADATFTGHRVAREIEEANPQIAIPYKRETIAWGTPHMPGGNFKIEYKV | soluble
2 | ASKPVEPAKPAEPTKVEFEEKQGKRGVKLGTVAIILSIIFGGGLAYKLHEQQADYQAQIAQLQNQLEKAQASMKQELNQVKEETIEKATTVTHKAEVVLGQQQKSIESLQLAVADVKGRRPNDWLLAEADYLVKLAGRKLFLEHDVESATQLMESADQRIAALNDPSLVKLRKAMANDITKLRTVPLIDRDGLVLRLTALQQQVDKLPLANALLPEAQVVAQHEVSEDISNWQDNLMTSLKDFSENFITFRTRDGNVIPLLSPEQHFYLKENIKAKLETAIKAVYQEQGEIYTTSLTTADKWAMAFFNQDDNAVKEFNKALNQLSQQNIQVEYPAKLESQSQLSDVIRERLRREVTTMTGTGDK | not soluble
3 | ASLIEDIDKKHLVLLRDGRTLIGFLRSIDQFANLVLHQTVERIHVGKKYGDIPRGIFVVRGENVVLLGEI | not soluble
4 | ASMRPVRLMKVFVTRRIPAEGRVALARAADCEVEQWDSDEPIPAKELERGVAGAHGLLCLLSDHVDKRILDAAGANLKVISTMSVGIDHLALDEIKKRGIRVGYTPDVLTDTTAELAVSLLLTTCRRLPEAIEEVKNGGWTSWKPLWLCGYGLTQSTVGIIGLGRIGQAIARRLKPFGVQRFLYTGRQPRPEEAAEFQAEFVSTPELAAQSDFIVVACSLTPATEGLCNKDFFQKMKETAVFINISRGDVVNQDDLYQALASGKIAAAGLDVTSPEPLPTNHPLLTLKNCVILPHIGSATHRTRNTMSLLAANNLLAGLRGEPMPSELKL | soluble
5 | ATCDDGRTTANAACCILFPILDDIQENLFDGAQCGEEVHESLRLTFHDAIGFSPTLGGGGADGSIIAFDTIETNFPANAGIDEIVSAQKPFVAKHNISAGDFIQFAGAVGVSNCPGGVRIPFFLGRPDAVAASPDHLVPEPQDSVDSILARMGDAGFSPVEVVWLLASHSIAAADKVDPSIPGTPFDSTPGVFDSQFFIETQLKGRLFPGTADNKGEAQSPLQGEIRLQSDHLLARDPQTACEWQSMVNNQPKIQNRFAATMSKMALLGQDKTKLIDCSDVIPTPPALVGAAHLPAGFSLSDVEQACAATPFPALTADPGPVTSVPPVPGS | soluble
6 | ATEATNATNNQSTQVSQATSQPINFQVQKDGSSEKSHMDDYMQHPGKVIKQNNKYYFQTVLNNASFWKEYKFYNANNQELATTVVNDNKKADTRTINVAVEPGYKSLTTKVHIVVPQINYNHRYTTHLEFEKAIPTLADAAK | soluble
7 | AVVFLWRNEEKWPAEFVSENVVKFGYTVEDFISGNFLYGDIIHPEDRNRVKEELKTRIRRGEVDFNTGYRIFTKAGDVRWVNERAFIQRNREGEITHIQGLVLDIT | not soluble
8 | AWFDWPVHRVYVNIGKTRRFHQHYYRRDVGSHVWQHNPVHRRGVAYRDRKTSDFYGKRPPRMAPVRPETRGYPGKFPGRPESRQQQPARERRDVPGAPQTGKGPGQVPRRDSTVAPQAQPPQREQVQKPARRDTPFQGVGEGSFERRAIKRGESSIRSVTPAPQGGGRGGWSGQRAPSGGGRGGGEMRMPGGGGGGGRGGGKKEFR | not soluble
9 | AWQAAVASNEPFGEAQLAQRIRRYLPEQGQLFVGNSLVVRLIDALAQLPAGYPVYSNRGASGIDGLIATAAGVQRASARPTLAIVGDLSALYDLNSLALLRQASAPLVLIVVNNNGGQIFSMLPTPQDERRQFYLMPQDVDFSHAAVMFGLAYHRPDDWPSLDEALAGAWRRAGATVIELAVNETDG | not soluble
10 | CATGTRQSPINIQWKDSVYDPQLAPLRVSYDAASCRYLWNTGYAFQVEFDDSCEDSGISGGPLGNHYRLKQFHFHWGATDEWGSEHAVDGHTYPAELHLVHWNSTKYENCKKASVGENGLAVIGVFLKLGAHHQALQKLVDVLPEVRHKDTQVAMGPFDPSCLMPACRDYWTYPGSLTTPPLAESVTWIVQKTPVEVSPSQLSMFRTLLFSGRGEEEDVMVNNYRPLQPLRDRKLRSSFRLDRTKMRS | soluble
11 | CEEPPTFEAMELIGKPKPYYEIGERVDYKCKKGYFYIPPLATHTICDRNHTWLPVSDDACYRETCPYIRDPLNGQAVPANGTYEFGYQMHFICNEGYYLIGEEILYCELKGSVAIWSGKPPICEKV | soluble
12 | CILRFIACNGQTRAVQSRGDYQKTLAIALKKFSLEDASKFIVCVSQSSRIKLITEEEFKQICFNSSSPERDRLIIVPKEKPCPSFEDLRRSWEIELAQPAALSSQSSLSP | soluble
13 | CKLCLGEYPVEQMTTIAQCQCIFCTLCLKQYVELLIKEGLETAISCPDAACPKQGHLQENEIECMVAAEIMQRYKKLQFER | soluble
14 | CPDRWMKYGNHCYYFSVEEKDWNSSLEFCLARDSHLLVITDNQEMSLLQVFLSEAFSWIGLRNNSGWRWEDGSPLNFSRISSNSFVQTCGAINKNGLQASSCEVPLHWVCKK | soluble
15 | CYVDTNNDGAYEGDELSGTMEYKLILNGKTLKGETTTCAVDAATAEKVFKQYANDNGVDGEWTYDDATKTFTVTE | soluble
16 | DAMNVMPVLAEIRERKAAHRAGMPSHVINFTLLPMNAVDMAHLQATLGNGPIQLHSRGYGSCRVLATATRDVWSVQFLNAMDTMILDTLEIGDVPAAACAADEDFSDSAERLGEIIEAYFE | not soluble
17 | DAQTRRRERRAEKQAQWKAANPLLVGVSAKPVNRP | soluble
18 | DDEEDEGSTIARHFHELWDMANKQDVLELILEQDIQVEEPAIFSKAIINFKADLAKKTLGPRGREVLNRLMPKVFDAVFAHPDAQFGLPRVLHLLHNICTRTTYLELLDEHPAALVQLVRLCTASPMISEQLSRYPILLDELIDPQQLYNPIPLDSYRTELRDFLARIPEDDMEQQMEALRQFKQICILRIAAADIAGVLPVMKVSDHLTYLAEAIVEAVVSQAWLQVSEKYGEPTHVKDREGKGFAVIGYGKVGGWELGYNSDLDIVFMHDCPVNVYTDGKKEIDGRQFYLRLAQRIIHIFSTRTASGILYEVDTRLRPSGASGLLVSPTDAFDDYQHQDAWTWEHQALVRARMIYGDEPLAIAFHNTRHDVLCKPRDEQTLKKEVVEMREKMRDHLGGKKSGRFMIKQDVGGITDIEFLAQYLVLNYSHEKPKLTRWCDNVRIYETLIAQGVMEEDQAMQLIRAYTAMRNEIHHRNLLNLDADVVEDKFVAEREWVKQAWNQWFA | soluble
19 | DEICKNQYLYRINQENYVLFSFDIFDTLISRNIAKPSAVFLIMKQKMRNMDFPLNLVKNFDRIRVEVEQYYYRNVCKNKYEDTNFDEIYNLLQQNFSLSFQQKEELMKLEINTEKETLYPIKKNIELVEELIKNEKRVVLISDMYFSSSIIRTFLNKFSPIFNNIPIYMSSEFRLKKNSGNLFKAILNLEKVDPKKWIHCGDNWVGDYLKPSNLEISTNFYINQLLPYEEFALNRNSLDMDLQKIIGISKKIR | not soluble
20 | DESATSYANSAIAIELDGDQYVARIKDPLADHAKYTEAFHAVGLDIDLRLVPASPTAVGKFLSVRWSKSSGAGPARSASGGSLPTLKFTPENCGEPNQAGCELTMRVPADYTGNMSLSLGRRAEPGEEYKNPDWATAPGEMFGGVQLQDGRPVDAMLAEARRRDLTVEFSRIRPDAETGALSFEPLSADQVRGDWTVWHAWQVKAGVIRLLVTPERLPENPFEKGARPPS | not soluble
21 | DEYARDTKVEWREWGTAPFEDAAESGKPVLLALTVPWSAECRAMDRGTYGEPRIAANINDGFVPVRVDADRNPRVRERYTMGGFPSTVFLTPEGEVITGATFLGPDGFRGILDSVRESWDAQ | not soluble
22 | DIESGLYALIGLFATSKTIDLVQVGLNQSKTVFIISENQEAIRQAILFKIDRGITRLSAKGGYTEDDKQILLCVIAQSEFSRLKEVIKEIDPEAFVVVMSASEVMGEGFTS | not soluble
23 | DLILPFYKAGKVSFYQGDLDVLINFLEPDVLVNAANGDLRHVGGVARAIDVFTGGKLTKRSKEYLKSSKAIAPGNAVLFENVLEHLSVLNAVGPRNGDSRVEGKLCNVYKAIAKCDGKILTPLISVGIFKVKLEVSLQCLLKTVTDRDLNVFVYTDQERVTIENFFNG | soluble
24 | DLTIDNGPEKGDLLVLGWGSTYGAIKKAVEQAREGGLDVAHAHLRYINPFPKNLGAMLGNFKKVLIPENNCGQLLSLIRDKFLIEPVGFSKVQGLPFNEMEIEEKITDILKEL | not soluble
25 | DMGESVKIIDLARQMITLSGLKPNTPEQPDGDIEILITGLRPGEKLYEELLIGDNVRKTGHPRIMTANETMLPWHELSALLDRIRAACDRYDQQAIRT | not soluble
26 | DMSKVNLEVIKPWITKRVTEILGFEDDVVIEFIFNQLEVKNPDSKMMQINLTGFLNGKNAREFMGELWPLLLSAQENIAGIPSAFLELKK | not soluble
27 | DNMFCNKEYCNRLKDENNCISNLQVEDQGNCDTSWIFASKYHLETIRCMKGYEPTKISALYVANCYKGEHKDRCDEGSSPMEFLQIIEDYGFLPAESNYPYNYVKVGEQCPKVEDHWMNLWDNGKILHNKNEPNSLDGKGYTAYESERFHDNMDAFVKIIKTEVMNKGSVIAYIKAENVMGYEFSGKKVKNLCGDDTADHAVNIVGYGNYVNSEGEKKSYWIVRNSWGPYWGDEGYFKVDMYGPTHCHFNFIHSVVIFNVDLPMN | soluble
28 | DPAVTYYRLEEVAKRNTAEETWMVIHGRVYDITRFLSEHPGGEEILLEQAGADATESFEDIGHSPDAREMLKQYYIGDVHPNDLKP | soluble
29 | DPSVFSLPDSKLPGDKEFVPWQQDLDDSVKPTQQARPTVIRWSEGGKEVFISGSFNNWSTKIPLIKSHNDFVAILDLPEGEHQYKFFVDGQWVHDPSEPVVTSQLGTINNLIHVKKSDFEVFDALKLDSMESSETSCRV | not soluble
30 | DQLPGPVRVTVAGGGSARSAGESGFRRGGGRGARRGSDGGASDDDDDDGGGSGGGGGGRGFSTQGAGAKGGGSSGGSVQGIFHVKPYLEGRKCIDHGGEMVSRSAFERAGGSMMAKWYRSIKVLPEGVSLGKWLVSNGLP | not soluble
